# Results from US20100233079A1 (AbbVie / Abbott, published 2010).
# What was measured:
# [1] = biological target: T1, rhIL-13 (recombinant human IL-13) (human, UniProt P35225 35-146, limits assumed); assay: cell-based or functional assay
# [2] = biological target: T1, rhIL-13 (recombinant human IL-13); assay: SPR (Biacore 3000), mAb captured by anti-human IgG Fc, antigen in solution
# Text: Unreacted moieties on the biosensor surface were blocked with ethanolamine. Modified carboxymethyl dextran surface in flowcell 2 and 4 was used as a reaction surface.
# [3] = biological target: T2, NRP1 (Neuropilin-1 Npn-1-His tag) (UniProt O14786-2 22-644, limits assumed); assay: direct bind ELISA, antigen on plate
# T2 construct: Bought antigen with a His tag
# Method: Enzyme Linked Immunosorbent Assays to screen for antibodies that bind a desired target antigen were performed as follows. […] Plates were washed four times with PBS containing 0.02% Tween 20. […] Plates were washed four times after blocking with PBS containing 0.02% Tween 20.
# One hundred microliters of 10 ng/mL goat anti-human IgG-FC specific HRP conjugated antibody (Southern Biotech #2040-05, Birmingham, Ala.) was added to each well of the desired target antigen plate or anti-polyHistidine antibody/Histidine tagged desired target antigen plate. Alternatively, one hundred microliters of 10 ng/mL goat anti-human IgG-kappa light chain specific HRP conjugated antibody (Southern Biotech #2060-05 Birmingham, Ala.) was added to each well of the desired target antigen/FC fusion plate and incubated for 1 hour at room temperature. Plates were washed 4 times with PBS containing 0.02% Tween 20.
# T1 sequence (P35225 35-146 limits assumed): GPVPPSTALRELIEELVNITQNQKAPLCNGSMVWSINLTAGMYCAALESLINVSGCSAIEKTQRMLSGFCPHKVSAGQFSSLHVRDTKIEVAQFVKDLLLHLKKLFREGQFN
Binder,"IC50 (nM), A549 bioassay (IL-13 induced TARC) [1] [nM]",Kd [2] [nM],EC50 [3] [nM]
"13C5.5 (antibody, V domains shown, Monoclonal antibody; also called AB231) VH: EVTLRESGPGLVKPTQTLTLTCTLYGFSLSTSDMGVDWIRQPPGKGLEWLAHIWWDDVKRYNPALKSRLTISKDTSKNQVVLKLTSVDPVDTATYYCARTVSSGYIYYAMDYWGQGTLVTVSS VL: DIQMTQSPSSLSASVGDRVTISCRASQDIRNYLNWYQQKPGKAPKLLIFYTSKLHSGVPSRFSGSGSGTDYTLTISSLQPEDIATYYCQQGNTLPLTFGGGTKVEIKR",0.2,0.15,–
"13C5.5L3F (antibody, V domains shown, Monoclonal antibody; also called AB232) VH: EVTLRESGPGLVKPTQTLTLTCTLYGFSLSTSDMGVDWIRQPPGKGLEWLAHIWWDDVKRYNPALKSRLTISKDTSKNQVVLKLTSVDPVDTATYYCARTVSSGYIYYAMDYWGQGTLVTVSS VL: DIQMTQSPSSLSASVGDRVTISCRASQDIRNYLNWYQQKPGKAPKLLIFYTSKLHSGVPSRFSGSGSGTDYTLTISSLQPEDIATYYCQQGLTPPLTFGGGTKVEIKR",0.31,0.24,–
"AB016 (antibody, V domains shown, Parent antibody) VH: EVQLVESGGGLVQPGGSLRLSCAASGFSFSSEPISWVRQAPGKGLEWVSSITGKNGYTYYADSVKGRFTISADTSKNTAYLQMNSLRAEDTAVYYCARWGKKVYGMDVWGQGTLVTVSS VL: DIQMTQSPSSLSASVGDRVTITCRASQSISSYLAWYQQKPGKAPKLLIYGASSRASGVPSRFSGSGSGTDFTLTISSLQPEDFATYYCQQYMSVPITFGQGTKVEIKR",–,–,0.28
